The text below walks through data of patent US20220378932A1 (published 2022).

The target of experiment [1] is T1, human insulin receptor extracellular domain (HIR ECD) (human, UniProt P06213 28-956, limits assumed).
T1 construct: extracellular domain
Put plainly: competitive ligand binding assay: displacement of [125I] murine HIRMAb from plated HIR ECD; Scatchard analysis, high affinity site, nonlinear regression. For orientation: In a radioligand displacement assay an active substance lowers the binding of a labelled ligand.

Experiment [2] deals with T2, Fc fusion of the human GFRα1 extracellular domain (GFRα1:Fc fusion protein) (human, UniProt P56159 25-429, limits assumed).
T2 construct: extracellular domain; Bought (R&D Systems), captured on plates by a mouse anti-human IgG; also called GFRα1 ECD; GFRal; not shown: Fc part of the bought fusion, captured by a mouse anti-human Fc antibody
T2 sequence (looked up): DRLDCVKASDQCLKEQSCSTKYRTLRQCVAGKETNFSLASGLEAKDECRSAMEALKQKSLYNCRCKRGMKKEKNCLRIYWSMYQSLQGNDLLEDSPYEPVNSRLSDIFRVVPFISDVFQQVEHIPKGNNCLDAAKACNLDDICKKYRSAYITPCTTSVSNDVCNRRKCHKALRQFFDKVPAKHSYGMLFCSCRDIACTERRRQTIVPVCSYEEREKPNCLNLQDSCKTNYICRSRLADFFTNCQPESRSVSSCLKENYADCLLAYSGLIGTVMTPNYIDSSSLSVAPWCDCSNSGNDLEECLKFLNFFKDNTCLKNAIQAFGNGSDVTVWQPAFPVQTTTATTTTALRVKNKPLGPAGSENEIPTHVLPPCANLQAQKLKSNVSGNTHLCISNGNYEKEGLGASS
The experiment in a line: ELISA on GFRα1:Fc captured by mouse anti-human Fc antibody, detection with goat anti-GDNF antibody.

Experiment [3] has as its target T1, human insulin receptor extracellular …. The experiment in a line: ELISA on plated HIR ECD, COS cell-derived protein, detection with biotinylated goat anti-human IgG; non-linear regression. (In an ELISA, binding on a coated surface is turned into a signal by an enzyme label.)
The target in experiment [4] is T2, Fc fusion of the human GFRα1 …. Put plainly: ELISA on GFRα1:Fc captured by mouse anti-human IgG, detection with goat anti-GDNF antibody.
Experiment [5] has the same target. The experiment in a line: ELISA on captured GFRα1:Fc (format of FIG. 33), run with the CHO-derived fusion protein.

B1: chimeric HIRMAb (Examples 3 and 4) (antibody, human IgG1, kappa)
heavy: not shown
light: DIQMTQSPSSLSASLGERVSLTCRASQDIGGNLYWLQQGPDGTIKRLIYATSSLDSGVPKRFSGSRSGSDYSLTISSLESEDFVDYYCLQYSSSPWTFGGATKMEIKRTVAAPSVFIFPPSDEQLKSGTASVVCLLNNFYPREAKVQWKVDNALQSGNSQESVTEQDSKDSTYSLSSTLTLSKADYEKHKVYACEVTHQGLSSPVTKSFNRGEC
notes: also called chimeric form of the HIRMAb; product of clone 400
One may read the Ki as the dissociation constant of the complex between target and ligand, obtained from inhibition or displacement. Molecule B1 displayed a Ki in experiment [1] of 0.63 nM.

B2: chimeric HIRMAb (Examples 15 and 16) (antibody, human IgG1, kappa, V domains shown)
VH: QVQLQQSGPELVKPGALVKISCKASGYTFTNYDIHWVKQRPGQGLEWIGWIYPGDGSTKYNEKFKGKATLTADKSSSTAYMHLSSLTSEKSAVYFCAREWAYWGQGTLVTVSA
VL: DIQMTQSPSSLSASLGERVSLTCRASQDIGGNLYWLQQGPDGTIKRLIYATSSLDSGVPKRFSGSRSGSDYSLTISSLESEDFVDYYCLQYSSSPWTFGGGTKMEIKR
notes: also called COS cell-derived chimeric HIRMAb; CHO-derived HIRMAb
The term EC50 denotes the concentration at which the effect is half-maximal. Turning to B2, the binding result in experiment [2] is “no binding”. Besides, the EC50 in experiment [3] came out at 0.5 nM.

B3: recombinant human GDNF (ligand)
chain: SPDKQMAVLPRRERNRQAAAANPENSRGKGRRGQRGKNRGCVLTAIHLNVTDLGLGYETKEELIFRYCSGSCDAAETTYDKILKNLSRNRRLVSDKVGQACCRPIAFDDDLSFLDDNLVYHILRKHSAKRCGCI
notes: Bought (Peprotech); also called recombinant GDNF
For B3, the concentration giving a half-maximal response (EC50) in experiment [4] is 1.03 nM; in experiment [5], 1 nM.
